Experimental data as given in patent publication CN116854812A.
One block for each molecule: values may come before it.

Experiments:
[1] = biological target: 沙眼衣原体培养物(购自菲鹏生物) (Chlamydia trachomatis); experiment: indirect ELISA, plate coated with C. trachomatis culture diluted 100x; antibody at 5 ng/ml
[2] = biological target: 沙眼衣原体培养物(购自菲鹏生物) (Chlamydia trachomatis); experiment: indirect ELISA, plate coated with C. trachomatis culture diluted 100x; antibody at 10 ng/ml
[3] = biological target: 沙眼衣原体培养物(购自菲鹏生物) (Chlamydia trachomatis); experiment: indirect ELISA, plate coated with C. trachomatis culture diluted 100x; antibody at 20 ng/ml
[4] = biological target: 沙眼衣原体培养物(购自菲鹏生物) (Chlamydia trachomatis); experiment: indirect ELISA, plate coated with C. trachomatis culture diluted 100x; antibody at 40 ng/ml
[5] = biological target: 沙眼衣原体培养物(购自菲鹏生物) (Chlamydia trachomatis); experiment: indirect ELISA, plate coated with C. trachomatis culture diluted 100x; antibody at 2.5 ng/ml
[6] = biological target: 沙眼衣原体培养物(购自菲鹏生物) (Chlamydia trachomatis); experiment: indirect ELISA, plate coated with C. trachomatis culture diluted 100x; antibody at 0 ng/ml (blank)

OD (450nm, 参考630nm) [1]: 0.503 OD
OD (450nm, 参考630nm) [2]: 0.825 OD
OD (450nm, 参考630nm) [3]: 1.2 OD
OD (450nm, 参考630nm) [4]: 1.79 OD
OD (450nm, 参考630nm) [5]: 0.291 OD
OD (450nm, 参考630nm) [6]: 0.025 OD
Molecule: 对照 (antibody)

OD (450nm, 参考630nm) [1]: 0.811 OD
OD (450nm, 参考630nm) [2]: 1.14 OD
OD (450nm, 参考630nm) [3]: 1.65 OD
OD (450nm, 参考630nm) [4]: 1.9 OD
OD (450nm, 参考630nm) [5]: 0.462 OD
OD (450nm, 参考630nm) [6]: 0.043 OD
B1: Anti-CT-4B11mut1单克隆抗体 (antibody, mouse IgG2a, kappa, V domains shown)
VH: QVQVRQSGPGLVQPSQSLSITCTVSGFSLRSHGVNWVRQSPRKGLEWLGVIWKGGSTEYSAAFMSRLSISKDNSKNQIFFKMNSLQADDTAIYYCAKNNDYGRFDYWGQGTLVTVSA
VL: EVVLTQSPTTLAASPGETITITCRVSSSISSSYLHWYQQKPGFSPKLLIYRTSNLASGVPARFSGSGSGTSYSLTIGTMEADDVATYYCQQGSSLPRTFGGGTTLEIKR

OD (450nm, 参考630nm) [1]: 0.959 OD
OD (450nm, 参考630nm) [2]: 1.33 OD
OD (450nm, 参考630nm) [3]: 1.71 OD
OD (450nm, 参考630nm) [4]: 1.92 OD
OD (450nm, 参考630nm) [5]: 0.507 OD
OD (450nm, 参考630nm) [6]: 0.026 OD
B2: Anti-CT-4B11mut2单克隆抗体 (antibody, part only; not given: light chain, part only)
heavy: QVQVRQSGPGLVQPSQSLSITCTVSGFSLRSHGVNWVRQSPRKGLEWLGVIWKGGSTEYSAAFMSRLSISKDNSKNQIFFKMNSLQADDTAIYYCAKNNDYGRFDYWGQGTLVTVSAAKTTAPSVYPLAPVCGDTTGSSVTLGCLVKGYFPEPVTLTWNSGSLSSGVHTFPAVLQSDLYTLSSSVTVTSSTWPSQSITCNVAHPASSTKVDKKIEPRGPTIKPCPPCKCPAPNLLGGPSVFIFPPKIKDVLMISLSPIVTCVVVDVSEDDPDVQISWFVNNVEVHTAQTQTHREDYNSTLRVVSALPIQHQDWMSGKEFKCKVNNKDLPAPIERTISKPKGSVRAPQVYVLPPPEEEMTKKQVTLTCMVTDFMPEDIYVEWTNNGKTELNYKNTEPVLDSDGSYFMYSKLRVEKKNWVERNSYSCSVVHEGLHNHHTTKSFSRTPGK
